Data published in patent US20200399391A1 (Sanofi, published 2020).

Experiments:
[1] = target: T1, FcγRIIIa (CD16a) extracellular domain with V158, C-terminal histag (human, UniProt P08637 17-208); test: SPR, against mAb 1
T1 construct: also called FcγRIIIa 158V; FcγRIIIa-histag; not shown: C-terminal histag

[2] = target: T2, FcγRIIa 131H expressed on HEK cells (human, UniProt P12318 34-317); test: flow cytometry on HEK293T cells expressing the receptor, FITC anti-human IgG; mean Kd
T2 sequence: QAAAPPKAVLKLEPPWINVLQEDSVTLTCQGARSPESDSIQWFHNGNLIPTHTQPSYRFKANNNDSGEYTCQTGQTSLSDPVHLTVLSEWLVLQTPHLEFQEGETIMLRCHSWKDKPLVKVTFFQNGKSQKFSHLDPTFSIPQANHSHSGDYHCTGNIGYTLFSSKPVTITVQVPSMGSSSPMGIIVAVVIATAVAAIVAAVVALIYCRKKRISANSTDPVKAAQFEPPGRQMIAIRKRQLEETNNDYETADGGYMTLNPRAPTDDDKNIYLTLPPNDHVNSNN

[3] = target: T3, FcγRIIIa 158V expressed on cells (human, UniProt P08637 17-254); test: cell-based or functional assay
T3 sequence (P08637 17-254 F176V limits assumed): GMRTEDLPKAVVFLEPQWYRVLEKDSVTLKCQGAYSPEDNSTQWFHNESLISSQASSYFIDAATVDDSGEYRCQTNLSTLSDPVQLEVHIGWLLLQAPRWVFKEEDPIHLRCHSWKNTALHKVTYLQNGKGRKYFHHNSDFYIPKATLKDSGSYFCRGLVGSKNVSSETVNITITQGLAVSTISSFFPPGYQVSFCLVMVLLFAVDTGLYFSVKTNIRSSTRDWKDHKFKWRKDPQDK

[4] = target: T3, FcγRIIIa 158V expressed on cells; test: flow cytometry on HEK293T cells expressing the receptor, FITC anti-human IgG; mean apparent Kd
[5] = target: T4, FcγRIIb expressed on HEK cells (UniProt P31994 43-310, limits assumed); test: flow cytometry on HEK293T cells expressing the receptor; the text calls it fold lower affinity
T4 construct: whole, on cells; also called HEK293T-FcγRIIb
T4 sequence (looked up): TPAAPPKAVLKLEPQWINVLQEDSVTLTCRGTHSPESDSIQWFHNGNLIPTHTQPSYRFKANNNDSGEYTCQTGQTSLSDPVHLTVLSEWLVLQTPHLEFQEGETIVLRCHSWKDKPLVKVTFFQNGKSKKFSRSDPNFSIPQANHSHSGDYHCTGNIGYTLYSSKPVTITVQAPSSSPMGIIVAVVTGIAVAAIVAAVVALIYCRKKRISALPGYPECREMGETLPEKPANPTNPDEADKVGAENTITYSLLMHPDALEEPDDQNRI

[6] = target: T5, FcγRIIa extracellular domain with H131, histag (Biorbyt, batch ORB138408) (human, UniProt P12318 34-217); test: AlphaScreen competition (relative IC50): untagged mAb displaces biotinylated anti-CD38 native IgG1 from FcγRIIa-histag
T5 construct: Bought protein; also called FcγRIIa H131; not shown: histag
T5 sequence: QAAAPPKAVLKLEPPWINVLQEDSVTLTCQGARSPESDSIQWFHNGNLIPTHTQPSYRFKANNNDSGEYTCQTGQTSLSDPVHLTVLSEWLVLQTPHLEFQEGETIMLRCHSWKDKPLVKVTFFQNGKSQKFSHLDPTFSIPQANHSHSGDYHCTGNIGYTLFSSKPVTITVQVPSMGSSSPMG

[7] = target: T6, FcγRI expressed on HEK cells (UniProt P12314 16-374, limits assumed); test: flow cytometry on HEK293T cells expressing the receptor
T6 construct: whole, on cells; also called HEK293T-FcγRI
T6 sequence (P12314 16-374 limits assumed): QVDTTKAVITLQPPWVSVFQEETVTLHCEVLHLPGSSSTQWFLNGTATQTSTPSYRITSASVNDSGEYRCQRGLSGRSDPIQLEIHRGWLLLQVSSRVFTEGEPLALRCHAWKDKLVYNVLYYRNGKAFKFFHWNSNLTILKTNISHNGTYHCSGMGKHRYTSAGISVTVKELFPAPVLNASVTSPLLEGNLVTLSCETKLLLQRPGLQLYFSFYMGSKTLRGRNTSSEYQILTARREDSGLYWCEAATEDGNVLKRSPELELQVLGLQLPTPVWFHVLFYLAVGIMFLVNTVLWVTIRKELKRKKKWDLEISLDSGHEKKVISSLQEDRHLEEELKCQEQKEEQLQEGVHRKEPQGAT

[8] = target: T1, FcγRIIIa (CD16a) extracellular domain …; test: SPR (BIAcore 2000), FcγRIIIa-histag captured on anti-His IgG, mAb 8-256 nM, two-state fit
[9] = target: T2, FcγRIIa 131H expressed on HEK cells; test: flow cytometry on HEK293T cells expressing the receptor
[10] = target: T5, FcγRIIa extracellular domain with H131, …; test: AlphaScreen competition, against mAb 1
[11] = target: T3, FcγRIIIa 158V expressed on cells; test: cell-based or functional assay; remark: listed apart in the source
[12] = target: T3, FcγRIIIa 158V expressed on cells; test: flow cytometry on HEK293T cells expressing the receptor
[13] = target: T4, FcγRIIb expressed on HEK cells; test: flow cytometry on HEK293T cells expressing the receptor, FITC anti-human IgG; mean Kd
[14] = target: T6, FcγRI expressed on HEK cells; test: as above
[15] = target: T3, FcγRIIIa 158V expressed on cells; test: cell-based or functional assay; remark: listed apart in the source
[16] = target: T1, FcγRIIIa (CD16a) extracellular domain …; test: SPR, another experiment

T1 sequence (P08637 17-208 F176V): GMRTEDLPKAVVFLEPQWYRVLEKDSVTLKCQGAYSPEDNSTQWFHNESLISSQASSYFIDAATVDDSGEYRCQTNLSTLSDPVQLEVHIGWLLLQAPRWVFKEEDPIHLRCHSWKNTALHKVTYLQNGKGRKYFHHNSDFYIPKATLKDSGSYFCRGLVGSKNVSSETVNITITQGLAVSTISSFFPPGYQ

- fold higher affinity than mAb 1 [1]: 9 fold
- Kd [2]: 0.222 µM
- ADCC of RPMI-8226 cells, EC50 (calcein release) [3]: 0.09 ng/mL
- Kd [4]: 0.032 µM
- difference in affinity versus mAb 1 [5]: 3.3 fold
- IC50 [6]: 0.015 µM
- difference in affinity versus mAb 1 [7]: 1.6 fold
- Kd [8]: 0.05 µM
- difference in affinity versus mAb 1 [9]: 5.3 fold
- fold higher affinity compared to mAb 1 [10]: > 18 fold
- ADCC of MOLP-8 cells, EC50 (calcein release) [11]: 0.14 ng/mL
- Fold difference in affinity versus mAb 1 [12]: 5.2 fold
- Kd [13]: 0.222 µM
- Kd [14]: 0.0147 µM
- ADCC of KMS-12BM cells, EC50 (calcein release) [15]: 0.6 ng/mL
- Kd [16]: 0.075 µM
B1: mAb 3 (antibody, human IgG1, kappa)
heavy: QVQLVQSGAEVAKPGTSVKLSCKASGYTFTDYWMQWVKQRPGQGLEWIGTIYPGDGDTGYAQKFQGKATLTADKSSKTVYMHLSSLASEDSAVYYCARGDYYGSNSLDYWGQGTSVTVSSASTKGPSVFPLAPSSKSTSGGTAALGCLVKDYFPEPVTVSWNSGALTSGVHTFPAVLQSSGLYSLSSVVTVPSSSLGTQTYICNVNHKPSNTKVDKKVEPKSCDKTHTCPPCPAPELLAGPDVFLFPPKPKDTLMISRTPEVTCVVVDVSHEDPEVKFNWYVDGVEVHNAKTKPREEQYNSTYRVVSVLTVLHQDWLNGKEYKCKVSNKALPAPEEKTISKAKGQPREPQVYTLPPSRDELTKNQVSLTCLVKGFYPSDIAVEWESNGQPENNYKTTPPVLDSDGSFFLYSKLTVDKSRWQQGNVFSCSVMHEALHNHYTQKSLSLSPG
light: DIVMTQSHLSMSTSLGDPVSITCKASQDVSTVVAWYQQKPGQSPRRLIYSASYRYIGVPDRFTGSGAGTDFTFTISSVQAEDLAVYYCQQHYSPPYTFGGGTKLEIKRTVAAPSVFIFPPSDEQLKSGTASVVCLLNNFYPREAKVQWKVDNALQSGNSQESVTEQDSKDSTYSLSSTLTLSKADYEKHKVYACEVTHQGLSSPVTKSFNRGEC
notes: also called HEAVY CHAIN 3 / LIGHT CHAIN 1
